B1: AtCXE5 (Arabidopsis thaliana) (protein)
chain: MESEIASEFLPFCRIYKDGRVERLIGTDTIPASLDPTYDVVSKDVIYSPENNLSVRLFLPHKSTKLTAGNKLPLLIYIHGGAWIIESPFSPLYHNYLTEVVKSANCLAVSVQYRRAPEDPVPAAYEDVWSAIQWIFAHSNGSGPVDWINKHADFGKVFLGGDSAGGNISHHMAMKAGKEKKLDLKIKGIAVVHPAFWGTDPVDEYDVQDKETRSGIAEIWEKIASPNSVNGTDDPLFNVNGSGSDFSGLGCDKVLVAVAGKDVFVRQGLAYAAKLEKCEWEGTVEVVEEEGEDHVFHLQNPKSDKALKFLKKFVEFIIG
B2: AtCXE12 (Arabidopsis thaliana) (protein)
chain: MDSEIAVDCSPLLKIYKSGRIERLMGEATVPPSSEPQNGVVSKDVVYSADNNLSVRIYLPEKAAAETDSKLPLLVYFHGGGFIIETAFSPTYHTFLTTSVSASNCVAVSVDYRRAPEHPISVPFDDSWTALKWVFTHITGSGQEDWLNKHADFSRVFLSGDSAGANIVHHMAMRAAKEKLSPGLNDTGISGIILLHPYFWSKTPIDEKDTKDETLRMKIEAFWMMASPNSKDGTDDPLLNVVQSESVDLSGLGCGKVLVMVAEKDALVRQGWGYAAKLEKSGWKGEVEVVESEGEDHVFHLLKPECDNAIEVMHKFSGFIKGGN

Columns and labels:
Experiment in all cases: GC-MS of (Z)-3-hexenol formed, Michaelis-Menten fit
Type in all cases: biochemical, Arabidopsis thaliana
Details in all cases: 50 mM Tris-HCl pH 7.5, 30 °C, 10 min, 0.5 µM enzyme
[1] = substrate: CC/C=C\CCOC(=O)CC
From the text: (§1) GC-MS of (Z)-3-hexenol formed, Michaelis-Menten fit on AtCXE5

[2] = substrate: CC/C=C\CCOC(=O)CCC
From the text: as §1

[3] = substrate: CC/C=C\CCOC(C)=O
From the text: as §1

[4] = substrate: CC/C=C\CCOC(=O)CC; remark: listed apart in the source
From the text: (§2) GC-MS of (Z)-3-hexenol formed, Michaelis-Menten fit on AtCXE12

[5] = substrate: CC/C=C\CCOC(=O)CCC; remark: listed apart in the source
From the text: as §2

[6] = substrate: CC/C=C\CCOC(C)=O; remark: listed apart in the source
From the text: as §2

| Protein | Km [1] [µM] | kcat [1] [s⁻¹] | kcat/Km [1] [M⁻¹ s⁻¹] | Km [2] [µM] | kcat [2] [s⁻¹] | kcat/Km [2] [M⁻¹ s⁻¹] | Km [3] [µM] | kcat [3] [s⁻¹] | kcat/Km [3] [M⁻¹ s⁻¹] | Km [4] [µM] | kcat [4] [s⁻¹] | kcat/Km [4] [M⁻¹ s⁻¹] | Km [5] [µM] | kcat [5] [s⁻¹] | kcat/Km [5] [M⁻¹ s⁻¹] | Km [6] [µM] | kcat [6] [s⁻¹] | kcat/Km [6] [M⁻¹ s⁻¹] |
| --- | --- | --- | --- | --- | --- | --- | --- | --- | --- | --- | --- | --- | --- | --- | --- | --- | --- | --- |
| B1 | 1450 ± 190 | 0.3 | 210 | 240 ± 30 | 0.16 | 650 | 8630 ± 1280 | 3.17 | 380 | – | – | – | – | – | – | – | – | – |
| B2 | – | – | – | – | – | – | – | – | – | 2260 ± 340 | 2.25 | 990 | 460 ± 50 | 0.85 | 1860 | 5940 ± 840 | 3.78 | 640 |
